Consider 8 molecules from US20230312702A1 (KINDRED BIOSCIENCES, published 2023).

Values joined by “and” are separate entries in the source; they are usually repeats but may differ in a detail not shown here. Identical values can stand only once.

Assay [1] has as its target canine FcRn with a poly-His tag and canine B2M heterodimer complex (canine). The assay is described as follows: SPR (Biacore T200) at pH 6.0, biotinylated FcRn/B2M immobilised, Fc as analyte. Background: Surface plasmon resonance follows binding to a sensor surface in real time, without labels.
In assay [2] the target is equine IL31 fused to human Fc (equine; human). Description: biolayer interferometry, biotinylated equine IL31 on the sensor, preliminary; biolayer interferometry, biotinylated equine IL31 on the sensor, preliminary; upper end of the range. (In BLI a coated tip is dipped into the sample, and binding shifts an interference pattern.)
Assay [3] deals with T1, Canine IL31 with C-terminal polyHis tag (canine, biotinylated at primary amine groups (NHS-LC-Biotin) or at glycan groups (Biotin-LC-Hydrazide)).
T1 construct: the protein was collected from the supernatant of 293 or CHO-S cells; also called biotinylated canine IL31; canine IL31 (amine-conjugated-biotin); not shown: C-terminal poly-His tag
T1 chain: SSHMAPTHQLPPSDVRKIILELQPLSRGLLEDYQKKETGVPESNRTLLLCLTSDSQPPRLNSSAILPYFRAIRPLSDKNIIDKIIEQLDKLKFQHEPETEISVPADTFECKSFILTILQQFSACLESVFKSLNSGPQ
Description: biolayer interferometry (Octet), canine IL31 (amine-conjugated-biotin) on streptavidin tips, 2:1 fit. The procedure:
(§1) The binding analysis was performed using a biosensor Octet as follows. Briefly, canine IL31 was biotinylated at primary amine groups using EZ-Link™ NHS-LC-Biotin (Thermo Scientific, Catalog No. 21336) or at glycan groups using EZ-Link™ Biotin-LC-Hydrazide (ThermoFisher Scientific, Catalog No. 21340) according to the manufacturer's instructions. The free unreacted biotin was removed from biotinylated IL31 by extensive dialysis. Biotinylated canine IL31 was captured on streptavidin sensor tips. The association of four different concentrations (400, 200, 66.6, and 33 nM) of chimeric and caninized M14 antibody and human and canine IL31 (amine-conjugated-biotin) and the association of 100 nM of caninized M14 antibody and canine IL31 (glycan-conjugated-biotin) was monitored for ninety seconds. Dissociation was monitored for 600 seconds. A buffer only blank curve was subtracted to correct for any drift. The data were fit to a 2:1 binding model using ForteBio™ data analysis software to determine the kₒₙ, koff, and the Kd. The buffer for dilutions and all binding steps was: 20 mM phosphate, 150 mM NaCl, pH 7.2.
(§2) Canine IL31 with C-terminal polyHis tag was expressed and purified from CHO-S cells. Human IL31 was obtained from Sino Biological and Streptavidin biosensors was obtained from ForteBio (Cat. #18-509).

The target of assay [4] is T1, Canine IL31 with C-terminal polyHis tag. Description: biolayer interferometry (Octet), canine IL31 (glycan-conjugated-biotin) on streptavidin tips, 100 nM antibody. On the procedure:
as §1, §2

Assay [5] deals with T2, GST_(S98-S144).
T2 construct: also called 34.5KDa
T2 GST fusion protein: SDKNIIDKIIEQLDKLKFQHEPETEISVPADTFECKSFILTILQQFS
The assay is described as follows: immunoblot of GST-canine IL31 fusions expressed in E. coli, membrane probed with chimeric M14; anti-GST blot in Fig. 5B. The text has this: (§3) To identify the canine IL31 epitope recognized by M14, multiple GST canine IL31 fragment fusion molecules were generated and proteins were expressed intracellularly in E. coli. After the GST fusion proteins were transferred to a membrane, chimeric M14 was used to probe the membrane. A positive signal resulted when the IL31 fragment contained the epitope.

The target of assay [6] is T3, GST_(A127-Q159).
T3 construct: also called 31.1KDa
T3 GST fusion protein: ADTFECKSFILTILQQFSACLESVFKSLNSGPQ
The description is as above.
Description: as §3

Chain of canine FcRn with a poly-His tag and canine B2M heterodimer complex (canine) (chain, as listed by the source limits assumed, form in doubt, chain 1 of 2): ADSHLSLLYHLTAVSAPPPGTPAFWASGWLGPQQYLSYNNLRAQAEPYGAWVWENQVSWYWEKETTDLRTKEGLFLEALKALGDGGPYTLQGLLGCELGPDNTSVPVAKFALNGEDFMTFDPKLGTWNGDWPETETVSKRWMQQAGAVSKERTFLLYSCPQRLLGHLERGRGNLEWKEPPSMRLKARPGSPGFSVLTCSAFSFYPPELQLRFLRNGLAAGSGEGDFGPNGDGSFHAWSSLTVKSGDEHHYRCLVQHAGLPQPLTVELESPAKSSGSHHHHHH
Chain of canine FcRn with a poly-His tag and canine B2M heterodimer complex (canine) (b2m, as listed by the source limits assumed, form in doubt, chain 2 of 2): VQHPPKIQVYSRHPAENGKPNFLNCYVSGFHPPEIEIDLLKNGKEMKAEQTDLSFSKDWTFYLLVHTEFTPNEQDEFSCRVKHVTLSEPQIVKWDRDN
Chain of equine IL31 fused to human Fc (equine; human) (chain, as listed by the source limits assumed, form in doubt): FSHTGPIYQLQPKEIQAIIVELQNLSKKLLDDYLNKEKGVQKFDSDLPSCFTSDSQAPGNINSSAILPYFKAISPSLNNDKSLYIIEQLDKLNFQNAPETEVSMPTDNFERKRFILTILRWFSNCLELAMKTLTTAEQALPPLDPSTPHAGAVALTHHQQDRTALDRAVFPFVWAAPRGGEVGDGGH

B1: wild-type canine IgG-B Fc polypeptide (protein, not shown: small tags and cut ends)
chain: PAPEMLGGPSVFIFPPKPKDTLLIARTPEVTCVVVDLDPEDPEVQISWFVDGKQMQTAKTQPREEQFNGTYRVVSVLPIGHQDWLKGKQFTCKVNNKALPSPIERTISKARGQAHQPSVYVLPPSREELSKNTVSLTCLIKDFFPPDIDVEWQSNGQQEPESKYRTTPPQLDEDGSYFLYSKLSVDKSRWQRGDTFICAVMHEALHNHYTQESLSHSPGK
Turning to B1, the koff (usually the first-order rate constant of dissociation) in assay [1] turned out to be 0.122 s⁻¹.

B2: variant canine IgG-B Fc polypeptide L(23)F (protein, not shown: small tags and cut ends)
chain: PAPEMLGGPSVFIFPPKPKDTLFIARTPEVTCVVVDLDPEDPEVQISWFVDGKQMQTAKTQPREEQFNGTYRVVSVLPIGHQDWLKGKQFTCKVNNKALPSPIERTISKARGQAHQPSVYVLPPSREELSKNTVSLTCLIKDFFPPDIDVEWQSNGQQEPESKYRTTPPQLDEDGSYFLYSKLSVDKSRWQRGDTFICAVMHEALHNHYTQESLSHSPGK
For the molecule B2, in assay [1], the off-rate (koff) was 0.0631 s⁻¹ and 0.0847 s⁻¹.

B3: variant canine IgG-B Fc polypeptide L(23)M (protein, not shown: small tags and cut ends)
chain: PAPEMLGGPSVFIFPPKPKDTLMIARTPEVTCVVVDLDPEDPEVQISWFVDGKQMQTAKTQPREEQFNGTYRVVSVLPIGHQDWLKGKQFTCKVNNKALPSPIERTISKARGQAHQPSVYVLPPSREELSKNTVSLTCLIKDFFPPDIDVEWQSNGQQEPESKYRTTPPQLDEDGSYFLYSKLSVDKSRWQRGDTFICAVMHEALHNHYTQESLSHSPGK
B3 had an off-rate constant (koff) in assay [1] of 0.126 s⁻¹.

B4: variant canine IgG-B polypeptide L(23)S (protein, not shown: small tags and cut ends)
chain: PAPEMLGGPSVFIFPPKPKDTLSIARTPEVTCVVVDLDPEDPEVQISWFVDGKQMQTAKTQPREEQFNGTYRVVSVLPIGHQDWLKGKQFTCKVNNKALPSPIERTISKARGQAHQPSVYVLPPSREELSKNTVSLTCLIKDFFPPDIDVEWQSNGQQEPESKYRTTPPQLDEDGSYFLYSKLSVDKSRWQRGDTFICAVMHEALHNHYTQESLSHSPGK
B4: the off-rate (koff) in assay [1] stood at 0.241 s⁻¹.

B5: variant canine IgG-B Fc polypeptide L(23)Y (protein, not shown: small tags and cut ends)
chain: PAPEMLGGPSVFIFPPKPKDTLYIARTPEVTCVVVDLDPEDPEVQISWFVDGKQMQTAKTQPREEQFNGTYRVVSVLPIGHQDWLKGKQFTCKVNNKALPSPIERTISKARGQAHQPSVYVLPPSREELSKNTVSLTCLIKDFFPPDIDVEWQSNGQQEPESKYRTTPPQLDEDGSYFLYSKLSVDKSRWQRGDTFICAVMHEALHNHYTQESLSHSPGK
In assay [1], B5 gave a koff of 0.0138 s⁻¹. Against the preceding molecule, the koff is about 17-fold lower.

B6: monoclonal antibody M14 (mouse antibody clone M14) (antibody, V domains shown)
VH: EVQLQESGPSLVKPSQTLSLTCSVTGDSITSGYWNWIRKFPGNKLEYMGYISYSGITDYNPSLKSRISITRDTSKNQYYLQLNSVTTEDTATYYCARYGNYGYAMDYWGQGTSVTVSS
VL: DIVLTQSPASLAVSLGQRATISCRASESVDTYGNSFMHWYQQKSGQSPKLLIYRASNLESGIPARFGGSGSRTDFTLTIDPVEADDVATYYCQQSYEDPWTFGGGTKLEIK
For the molecule B6, the Kd (in general, the concentration at which binding is half-saturated) in assay [2] was less than 50000 pM.

B7: caninized M14 IgG-B (antibody, V domains shown)
VH: EVQLVESGPSLVKPGGSLRLTCSVTGDSITSGYWNWIRKFPGNKLEYMGYISYSGITDYNPSLKSRITISRDTSKNQYYLQLNSVTTEDTATYYCARYGNYGYAMDYWGQGTLVTVSS
VL: DIVMTQSPASLSVSLGQRATISCRASESVDTYGNSFMHWYQQKPGQSPKLLIYRASNLESGIPARFGGSGSGTDFTLTIDPVQADDVATYYCQQSYEDPWTFGGGTKLEIKR
notes: Caninized M14 on canine IgG-B with canine light chain constant region; also called caninized M14 antibody
In the case of B7, the Kd is less than 10 pM in assay [3] and less than 1 pM in assay [4]. Moreover, in assay [4], the koff is less than 1e-07 s⁻¹.

B8: chimeric M14 (murine M14 VH and VL fused to canine IgG-B constant heavy chain and canine constant light chain) (antibody, V domains shown)
VH: EVQLQESGPSLVKPSQTLSLTCSVTGDSITSGYWNWIRKFPGNKLEYMGYISYSGITDYNPSLKSRISITRDTSKNQYYLQLNSVTTEDTATYYCARYGNYGYAMDYWGQGTSVTVSS
VL: DIVLTQSPASLAVSLGQRATISCRASESVDTYGNSFMHWYQQKSGQSPKLLIYRASNLESGIPARFGGSGSRTDFTLTIDPVEADDVATYYCQQSYEDPWTFGGGTKLEIKR
notes: expressed in CHO cells, Protein A purified; also called chimeric M14 antibody
For the molecule B8, the binding result in assay [5] and in assay [6] was “no binding” throughout.
